Usually Kd stands for the equilibrium constant for the complex coming apart. Higher therefore signals weaker binding. Broadly, the EC50 is the concentration at which the effect is half-maximal. The low end stands for higher potency in that assay, the high end for lower potency in that assay. As usually defined, the IC50 is the point on the concentration scale where inhibition reaches its midpoint. Read a high IC50 as weaker potency in that assay. As usually defined, the EC50 (read off the curve) is the concentration needed to bring the measured effect to its halfway point. The low end stands for a more potent agent, the high end for a less potent agent.

Ends that are not written are not given here.

To fix the notation:
T1: Cyno CD3 (Antigen was biotinylated for capture on the plate (per card); site of biotin and any vendor tag not stated in the passages seen.)
T1 construct: also called cynomolgus CD3
T1 chain: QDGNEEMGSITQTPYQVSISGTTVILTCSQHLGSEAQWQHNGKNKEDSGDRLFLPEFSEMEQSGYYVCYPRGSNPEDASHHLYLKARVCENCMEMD

T2: human TROP2-biotin (human, UniProt P09758 27-274, limits assumed, biotinylated (site not stated))
T2 construct: also called hTROP2-Biotin; Biotinylated TROP2
T2 sequence (looked up): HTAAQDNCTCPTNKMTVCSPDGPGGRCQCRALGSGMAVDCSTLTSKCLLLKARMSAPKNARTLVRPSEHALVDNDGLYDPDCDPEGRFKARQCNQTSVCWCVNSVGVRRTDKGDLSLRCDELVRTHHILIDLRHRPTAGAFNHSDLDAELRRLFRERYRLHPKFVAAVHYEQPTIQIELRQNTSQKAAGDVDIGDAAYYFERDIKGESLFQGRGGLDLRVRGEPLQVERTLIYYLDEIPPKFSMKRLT

T3: TROP2 (human, UniProt P09758 27-274, limits assumed, biotinylated (site not stated))
T3 construct: also called TROP2-biotin; tumor-associated calcium signal transducer 2
T3 sequence (looked up): T2 sequence (looked up)

B1: TCE-22 (anti-CD3 scFv N236A; anti-TROP2 HC wt) (bispecific antibody)
light: DIQLTQSPSSLSASVGDRVSITCKASQDVSIAVAWYQQKPGKAPKLLIYSASYRYTGVPDRFSGSGSGTDFTLTISSLQPEDFAVYYCQQHYITPLTFGAGTKVEIKRTVAAPSVFIFPPSDEQLKSGTASVVCLLNNFYPREAKVQWKVDNALQSGNSQESVTEQDSKDSTYSLSSTLTLSKADYEKHKVYACEVTHQGLSSPVTKSFNRGEC
heavy: not shown
notes: scFv-Fab; the entry already carries the mutation
B2: TCE-25 (anti-CD3 scFv V239A; anti-TROP2 HC wt) (bispecific antibody)
light: B1 light
heavy: not shown
notes: as for B1
B3: TCE-21 (anti-CD3 scFv S235A; anti-TROP2 HC wt) (bispecific antibody)
light: B1 light
heavy: not shown
notes: as for B1
B4: TCE-19 (anti-CD3 scFv W233A; anti-TROP2 HC wt) (bispecific antibody)
light: B1 light
heavy: not shown
notes: scFv-Fab; the entry already carries the mutation; also called 3091
B5: TCE-24 (anti-CD3 scFv W238A; anti-TROP2 HC wt) (bispecific antibody)
light: B1 light
heavy: not shown
notes: scFv-Fab; the entry already carries the mutation; also called 3096
B6: TCE-17 (anti-CD3 scFv V231A; anti-TROP2 HC wt) (bispecific antibody)
light: B1 light
heavy: not shown
notes: as for B1
B7: TCE-20 (anti-CD3 scFv Y234A; anti-TROP2 HC wt) (bispecific antibody)
light: B1 light
heavy: not shown
notes: as for B1
B8: TCE-23 (anti-CD3 scFv R237A; anti-TROP2 HC wt) (bispecific antibody)
light: B1 light
heavy: not shown
notes: as for B1
B9: TCE-18 (anti-CD3 scFv L232A; anti-TROP2 HC wt) (bispecific antibody)
light: B1 light
heavy: not shown
notes: as for B1
B10: TCE-29 (anti-CD3 scFv wt; anti-TROP2 (F108A) HC) (bispecific antibody)
light: B1 light
heavy: not shown
notes: as for B1
B11: TCE-31 (anti-CD3 scFv F104A; anti-TROP2 (F108A) HC) (bispecific antibody)
light: B1 light
heavy: not shown
notes: scFv-Fab; the entry already carries the mutations
B12: TCE-28 (anti-CD3 scFv N30Q, I109V, G172A, V231A; anti-TROP2 HC wt) (bispecific antibody)
light: B1 light
heavy: not shown
notes: scFv-Fab; the entry already carries the mutations; also called 3100
B13: TCE-14 (anti-CD3 scFv Y111A; anti-TROP2 HC wt) (bispecific antibody)
light: B1 light
heavy: not shown
notes: scFv-Fab; the entry already carries the mutation; also called 3086
B14: Peptide-1 (peptide)
peptide: QGCGTIADPEPHCW
modifications: cysteine pairing not given here; also: biotinylated when captured in ELISA
notes: also called 1363
B15: Peptide-2 (peptide)
peptide: GSQCLGPEWEVCPY
modifications: cysteine pairing not given here; also: biotinylated when captured in ELISA
notes: also called 1419
B16: Peptide-10 (peptide)
peptide: ASQCLGPEWEVCPY
modifications: cysteine pairing not given here; also: biotinylated when captured in ELISA
notes: also called 1594
B17: Peptide-3 (peptide)
peptide: VYCGPEFDESVGCM
modifications: cysteine pairing not given here; also: biotinylated when captured in ELISA
notes: also called 1443
B18: Peptide-9 (peptide)
peptide: VYCGPEFDESVGCA
modifications: cysteine pairing not given here; also: biotinylated when captured in binding ELISA
notes: also called 1566
B19: Peptide-8 (peptide)
peptide: AYCGPEFDESVGCM
modifications: cysteine pairing not given here; also: biotinylated when captured in binding ELISA
notes: also called 1555
B20: TCE-36 (bispecific antibody)
light chain (anti-TROP2 LC wt): B1 light
heavy chain (anti-CD3 scFv H101A fused to anti-TROP2 D109A Fab HC): not shown
notes: not in the list MOLECULES; also called TCE-36 (anti-CD3 scFv H101A; anti-TROP2 (D109A) HC)
B21: TCE-38 (bispecific antibody)
light chain (anti-TROP2 LC wt): B1 light
heavy chain (anti-CD3 scFv F240A fused to anti-TROP2 D109A Fab HC): not shown
notes: not in the list MOLECULES; also called anti-TROP2 (D109A) HC)
B22: TCE-35 (anti-CD3 scFv wt; anti-TROP2 (D109A) HC) (bispecific antibody)
light: B1 light
heavy: not shown
notes: as for B1
B23: TCE-30 (anti-CD3 scFv H101A; anti-TROP2 (F108A) HC) (bispecific antibody)
light: B1 light
heavy: not shown
notes: as for B11
B24: TCE-31 (bispecific antibody)
light: B1 light
heavy: not shown
notes: anti-CD3 scFv F104A; anti-TROP2 Fab F108A
B25: TCE-30 (bispecific antibody)
light: B1 light
heavy: not shown
notes: anti-CD3 scFv H101A; anti-TROP2 Fab F108A

One assay deals with T4, human CD3ε-biotin (human, UniProt P07766 23-126, limits assumed, biotinylated (site not stated)).
T4 construct: also called CD3E-bio; CD3E-biotin
Kind of assay: BLI (Octet), summary table. (BLI is a label-free optical method that tracks binding on a fibre tip over time.)
Regarding B1, the “CD3 Octet response” value is 0.65 and the “CD3 t1/2” value is 2.45 min.
The like results for B2 were, in that order, 0.74 and 4.26 min.
Turning to B3, the “CD3 Octet response” value was found to be 0.68 and the Kd stood at 3.41 nM.
Consider B4, for which the “CD3 t1/2” value was found to be 6.45 min and binding was put at a Kd of 12.3 nM.
Regarding B5, the “CD3 Octet response” value was 0.07 and the equilibrium dissociation constant (Kd) is 31 nM.
Turning to B6, the “CD3 t1/2” value was found to be 2.96 min and the Kd was 6.26 nM.
B7: the “CD3 Octet response” value came to 0.67, the “CD3 t1/2” value worked out at 1.66 min and binding was put at a Kd of 11.1 nM.
The like results for B8 were, in that order, 0.73, 2.67 min and 6.51 nM.
The like results for B9 were, in that order, 0.66, 2.64 min and 8.39 nM.

In another assay the target is T1, Cyno CD3. Kind of assay: Cyno CD3 binding ELISA, TCE titrated. On the technique in general: ELISA stands for enzyme-linked immunosorbent assay.
Regarding B10, the 50% effective concentration (EC50) was determined as 0.184 nM.
The same measure, in the same setting: for B11 the value was 0.671 nM.

The next assay concerns the target T4, human CD3ε-biotin. Kind of assay: Human CD3 binding ELISA, TCE titrated.
In turn, B11 had a concentration for a half-maximal effect (EC50) of 0.761 nM.

Another assay addresses T4, human CD3ε-biotin. Kind of assay: BLI (Octet), human CD3ε-biotin 10 nM on sensor, 50 nM TCE.
B1 displayed a Response of 0.65.
The same measure, in the same setting: for B2 the value was 0.742.
B12 had a Kd of 9.11 nM and a Response of 0.931.
Taken in the same sequence, the figures for B3 were 3.41 nM and 0.682.
The like results for B4 were, in that order, 12.3 nM and 0.414.
The like results for B5 were, in that order, 31 nM and 0.0683.
Take B6: the dissociation constant Kd worked out at 6.26 nM.
With B7, the dissociation constant (Kd) is 11.1 nM and the Response stood at 0.674.
On to B8, for which the Kd came out at 6.51 nM and the Response was determined as 0.728.
Turning to B13, the Response was -0.0009.
Take B9: the Kd turned out to be 8.39 nM and the Response stood at 0.663.

Another assay addresses T5, TCE-3.
T5 construct: anti-CD3 scFv R100A; anti-TROP2 Fab wt; also called 3075
Kind of assay: competition ELISA, peptide titrated vs TCE binding to captured CD3.
On to B14, for which the 50% inhibitory concentration (IC50) is > 100 µM.

For another assay, the target named is T6, TCE-6.
T6 construct: anti-CD3 scFv N103A; anti-TROP2 Fab wt; also called 3078
Described as above.
Regarding B14, the concentration for half-maximal inhibition (IC50) was > 100 µM.

In another assay the target is T7, TCE-15.
T7 construct: anti-CD3 scFv W112A; anti-TROP2 Fab wt; also called 3087
The assay is described as above.
For B14, the 50% inhibitory concentration (IC50) is > 100 µM.
For the molecule B15, the half-maximal inhibitory concentration (IC50) is > 100 µM.

The target of another assay is T8, TCE-19.
T8 construct: anti-CD3 scFv W233A; anti-TROP2 Fab wt; also called 3091
Described as above.
Regarding B15, the IC50 was > 100 µM.
Same read-out and setting: under B16 stands > 100 µM; under B17, > 100 µM.
Still for that read-out and setting: under B18 stands > 100 µM.
Turning to B19, the half-maximal inhibitory concentration (IC50) was > 100 µM.

Another assay has as its target T4, human CD3ε-biotin. Kind of assay: ELISA, biotinylated CD3ε captured on neutravidin plate, TCE titrated.
For B20, the EC50 was found to be 0.595 nM.
In the case of B21, a half-maximal response (EC50) required 1.09 nM. Against the preceding molecule, the EC50 is about 1.8-fold higher.

The target of another assay is T2, human TROP2-biotin. Kind of assay: ELISA, biotinylated TROP2 captured on neutravidin plate, TCE titrated.
B10 displayed a 50% effective concentration (EC50) of 1.15 nM. This lies in the single-digit nanomolar range.
B22 showed an EC50 of 1.07 nM.
The same measure, in the same setting: for B11 the value was 1.02 nM.
Still for that read-out and setting: under B23 stands 1.28 nM.

A further assay has as its target T3, TROP2. Kind of assay: ELISA, biotinylated TROP2 captured on neutravidin coated plates, HRP secondary antibody, OD 450 nm.
B24: the “EC50 (read off the curve)” value was ~0.7 nM.

Another assay concerns the target T3, TROP2. The assay is described as above. The source holds these as a separate data set.
With B25, the “EC50 (read off the curve)” value is ~2 nM.

A further assay deals with T2, human TROP2-biotin. Kind of assay: ELISA, biotinylated TROP2 captured on neutravidin plate, TCE titrated; table row head prints EC50 without a unit, unit taken from the axis Log [TCE nM].
With B20, the concentration for a half-maximal effect (EC50) is 1.38 nM.

For another assay, the target named is T9, TCE-1.
T9 construct: anti-CD3 scFv wt fused to anti-TROP2 Fab HC wt
Kind of assay: competition ELISA: peptide titrated and pre-incubated with a constant concentration of TCE-1; TCE-1 bound to plate-captured biotinylated CD3 is detected (blocked ligand: CD3).
With B15, the “IC50 (read off the curve)” value is ~0.3 µM.
Still for that read-out and setting: under B16 stands ~0.2 µM; under B19, ~0.4 µM.

(Values after patent publication US20260049140A1 (JANUX THERAPEUTICS, published 2026).)
